Patent US20250333508A1

What was measured:
[1] = target: human CTLA-4 his tag antigen (human) (UniProt P16410); test: ELISA on coated human CTLA-4 his tag protein, goat anti-human IgG-Fc HRP; unit from the axis; the isotype curve is flat at OD450 0, so the number comes from a fit of a flat line
[2] = target: cynomolgus monkey CTLA-4. his tag protein (cynomolgus monkey) (UniProt G7PL88); test: ELISA on coated cynomolgus monkey CTLA-4 his tag protein, goat anti-human IgG-Fc HRP; unit from the axis; the isotype curve is flat at OD450 0, so the number comes from a fit of a flat line
[3] = target: murine CTLA-4. his tag protein (murine) (UniProt P09793); test: ELISA on coated mouse CTLA-4 his tag protein, goat anti-human IgG-Fc HRP; unit from the axis; the isotype curve is flat at OD450 0, so the number comes from a fit of a flat line

Measured: EC50

UniProt P16410, sequence (P16410 36-161 limits assumed): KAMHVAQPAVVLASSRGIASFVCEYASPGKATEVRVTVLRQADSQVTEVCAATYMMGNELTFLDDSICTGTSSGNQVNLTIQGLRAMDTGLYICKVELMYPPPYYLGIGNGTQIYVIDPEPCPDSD
UniProt G7PL88, sequence (G7PL88 entry or part of it limits assumed): as the sequence (P16410 36-161 limits assumed) above, with S14N, I18T, L106M counted along it
UniProt P09793, sequence (P09793 36-161 limits assumed): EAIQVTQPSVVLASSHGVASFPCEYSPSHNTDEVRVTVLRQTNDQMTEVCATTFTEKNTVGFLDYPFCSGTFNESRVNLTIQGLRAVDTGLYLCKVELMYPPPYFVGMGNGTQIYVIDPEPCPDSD

Isotype (antibody)
5.74 nM: [1] | [2] | [3]
